In the DeepSol protein solubility set:

Assay: soluble on expression in E. coli; label from the status in PepcDB or PDB records

Row | Sequence | soluble on expression in E. coli
1 | VPYKGYLIDLDGTIYQGKNRIPAGERFIKRLQERGIPYLLVTNNTTRTPEMVQSMLANQFHVETSIETIYTATMATVDYMNDMNRGKTAYVIGETGLKSAIAAAGYVEELENPAYVVVGLDSQVTYEMLAIATLAIQKGALFIGTNPDLNIPTERGLMPGAGALNALLEAATRVKPVFIGKPNAIIMNKSLEVLGIQRSEAVMVGDNYLTDIMAGIQNDIATILVTTGFTRPEEVPTLPIQPDHVLSSLDEWRL | soluble
2 | MNLVSLRDSPQYLERAIAYFQSKWGNENTKMVYDNCFRHSLNAENPIPQWYLLMNGDEIIGCAGLTSNDFNSRADLYPWLVALFIEEKYRGNHYANLLIEQAKKDTLKFGFSKLYLSTSHTSYYERLGFTYIGDCWHPWGESSRVYEIILKF | not soluble
3 | FPQLPPAPDDYPTFPDTSTWPVVFPELPAAPYGGPCRPPQHTSKAAAPRIPADRLPNHVAIVMDGNGRWATQRGLARTEGHKMGEAVVIDIACGAIELGIKWLSLYAFSTENWKRSPEEVRFLMGFNRDVVRRRRDTLKKLGVRIRWVGSRPRLWRSVINELAVAEEMTKSNDVITINYCVNYGGRTEITEATREIAREVAAGRLNPERITESTIARHLQRPDIPDVDLFLRTSGEQRSSNFMLWQAAYAEYIFQDKLWPDYDRRDLWAACEEYASRTRRFGSA | soluble
4 | MKNELICYKQMPVWTKDNLPQMFQEKHNTKVGTWGKLTVLKGKLKFYELTENGDVIAEHIFTPESHIPFVEPQAWHRVEALSDDLECTLGFYCKKEDYFSKKYNTTAIHGDVVDAAKIISPCKVLDLGCGQGRNSLYLSLLGYDVTSWDHNENSIAFLNETKEKENLNISTALYDINAANIQENYDFIVSTVVFMFLNRERVPSIIKNMKEHTNVGGYNLIVAAMSTDDVPCPLPFSFTFAENELKEYYKDWEFLEYNENMGELHKTDENGNRIKMKFATMLARKK | soluble
5 | MSLTVNNVGLRYGDKKLFEDVSIKFLPGNCYGLIGANGAGKSTFLKVLSGELDSQSGNVHIGSGERLAVLRQDHFQYDNELVLNTVIMGHERLYKIMDEKNAIYMKEDFSDEDGIRAAELEGEFAELDGWEAESDAAVLLNGLGIPTDLHGKLMKDLTGGEKVKVLLAQALFGKPDILLLDEPTNHLDIRAIHWLEEFLINFDNTVIVVSHDRHFLNKVCTHIADLDFSKIKLYVGNYDFWYESSQLAQTMMGDRNKKKEEKMKELQDFIARFSANASKSKQATSRKKMLEKITLEDIQPSSRRYPFIQFKPDREVGNDLLTVTNLSKTIDGVKILDNLSFSINRNDKVALVGDDEVAKTVLFQILAGEMEPDEGSYKWGITTSQSYFPKDNSEFFEENDMSLVEWLRQFSPEDDSEAFLRGFLGRMLFSGDEVLKKVRVLSGGEKVRCMLSKMMLSGSNVLLLDEPTNHLDLESITALNNGLEAFKGAMIFASHDHQLLQTIATRIINLSKDQFYNKEISYDEYLKEVMNVAEGHHHHHH | soluble
6 | MNDFSLELPVRTNKPRETGQSILIDNGYPLQFFKDAIAGASDYIDFVKFGWGTSLLTKDLEEKISTLKEHDITFFFGGTLFEKYVSQKKVNEFHRYCTYFGCEYIEISNGTLPMTNKEKAAYIADFSDEFLVLSEVGSKDAELASRQSSEEWLEYIVEDMEAGAEKVITEARESGTGGICSSSGDVRFQIVDDIISSDIDINRLIFEAPNKTLQQGFIQKIGPNVNLANIPFHDAIALETLRLGLRSDTFFL | soluble
7 | MGSDKIHHHHHHMVDGMKHLILKVTNRCNLNCIYCYANNKNNKDMDFKTAKNAIDYLLNLDNQIKIQFTGGEPLLNFNLIEKIVDYCNDNYSNCNIQYAIQTNATLINEKIAEKIKELDIKVGISIDGLEINDILRPYKNGKPSTLDTLKGMYILKSYNIPFGITTVVTNKNLPYLEEFVKYLIAFGVKSISFDLLKPKKKEHLTLMPNIEEFNKLLNKLGRYPIYIKNLQKRPKDKYCYLNSGDLLFVNEFGDIYLCPTLEGLSCLGNINDKNKIKLPKVKSKGCYAREFLIKTFKK | not soluble
8 | MDYFPIFCQLQHKACLLVGGGEIAERKARLLLDAGALVTVNACEFTPQFHHWADQGQLSLISGEFVPELLADKWLVIAATDQLSVNALVYQSANQQRIFCNVVDDPKRTSFIMPSIIDRSPIMIAVSSGGKAPVLARLLREKLEALLPQHLGQLAGNLRQRVKQHFTVMTERRRFWEKLLTHDRLAQSLANNDHVQADQHVEQLFSAPLTDRGEVVLVGAGPGDAGLLTLKGLQQIQQADVVVYDRLVSDEVMNLVRRDAERIFVGKQSGHHCVPQEQINQILLQQAQSGKRVVRLKGGDPFIFGRGGEELEELAGYGIPFSVVPGITAASGCSAYSGIPLTHRDHAQSVRLVTGHAKKEGQLDWANLAAEKQTLVFYMGLSQAGEIQQQLIQHGMPATTQVALVENGTSRHQRVVSGELSQLALLSQQVSSPSLIIVGSVVSLREKLNWFSSRHHDDQPKVTECVAHVG | not soluble
9 | MLVKSMNFDPLKEAEKIKDEIISWRRDFHMHPELGFEEERTSKIVEEHLREWGYKIKRAGTGIIADIGDGGKTIALRADMDALPIQEENDVPYKSRVPGKMHACGHDAHTAMLLGAAKIIAEHSSELENKVRLIFQPAEEGGNGALKMIEAGALEGVDAIFGIHVWAELPSGIVGIREGPFLAGVGKFIAKIIGKGGHGAAPHFSIDPIPAAADAVLALQRIVAREVDPLESAVVTVGKIQGGTAFNVIPQYVELEGTFRFFTQELGKFLERRIREIIENTAKAHNCKAEVNTEILGPPTINDEKMVKFVAETAKALGLKVGEVRKTLGGEDFAYYLEKVPGAFIALGIRNEEKGIIYPHHHPKFDVDEDVLYLGTALEVALAFNFKG | soluble
10 | MHHHHHHSSGVDLGTENLYFQSMAARVLIIGSGGREHTLAWKLAQSHHVKQVLVAPGNAGTACSEKISNTAISISDHTALAQFCKEKKIEFVVVGPEAPLAAGIVGNLRSAGVQCFGPTAEAAQLESSKRFAKEFMDRHGIPTAQWKAFTKPEEACSFILSADFPALVVKASGLAAGKGVIVAKSKEEACKAVQEIMQEKAFGAAGETIVIEELLDGEEVSCLCFTDGKTVAPMPPAQDHKRLLEGDGGPNTGGMGAYCPAPQVSNDLLLKIKDTVLQRTVDGMQQEGTPYTGILYAGIMLTKNGPKVLEFNCRFGDPECQVILPLLKSDLYEVIQSTLDGLLCTSLPVWLENHTALTVVMASKGYPGDYTKGVEITGFPEAQALGLEVFHAGTALKNGKVVTHGGRVLAVTAIRENLISALEEAKKGLAAIKFEGAIYRKDIGFRAIAFLQ | soluble
11 | MAELQKVDDWLSALLANLEPAARSRMMRQLAQELRRTQQQNIRMQRNPDGSSYEPRRVTARSKKGRIKRQMFAKLRTTKYLKTAASADSASVQFEGKVQSIARVHHYGLRDRVSRKGPEVRYAERRLLGVNDDVEAMTRDMILQWLAG | not soluble
12 | MGSDKIHHHHHHAHTRAIDNIANSGDMVTMSGTVKLYAKTAQDGGVVNTLTLQVSDFTGLDTGTGSKTVEISGAATYIEVEGNIDGSATKTDDVNSRQGGVTSDAVRVVGGAAIVTGGSTSTCSIEVAPEMARVEVKGDLGSSFTNLAELKVKGIYLNNVKQKRADAAVVKTTKASAPDWTTAYTAGGTKSNLYNTFIGTPITKFDSGKADGYNFFPQDFHIASLSAAATTKEEAAKYHPHVIMEVEYKMNGVGALSKTGWLNVVALKDNTSSSYIGEFANGKVYQLDLADIKKIMDVPVPPVTVDPDPDAVNVDVTVTVKGWELVFIKPEV | not soluble
13 | MRGSHHHHHHGMSCSKSVIKEEMLIDLHLEGTFNGHYFEIKGKGKGQPNEGTNTVTLEVTKGGPLPFGWHILCPQFQYGNKAFVHHPDNIHDYLKLSFPEGYTWERSMHFEDGGLCCITNDISLTGNCFYYDIKFTGLNFPPNGPVVQKKTTGWEPSTERLYPRDGVLIGDIHHALTVEGGGHYACDIKTVYRAKKAALKMPGYHYVDTKLVIWNNDKEFMKVEEHEIAVARHHPFYEPKKDK | soluble
14 | MGIDVVMTNRRGEPPPELSTLPCFPFKWEQQGEQLPLAPAALEGVTHVLNGIPPDRQGEDAVALALLPQLEKLNLHWFGYLSTTGVYGDRQGGWVDETTPVNPQNLRSQHRVRIEQVFLNANLPTHIFRLPGIYGPGEGRNPIARILKGDVQLIDKPGHYFCRIHVADIVQTLERSLAQPTPQEIYNLSDDQPSESLPVLLEAYRLLGRPAPPAIPLEAANLSPMAQSFWRESRRVRNDKIKQALGVQLRYPSYREGLRAIARELGLEHHHHHH | not soluble
15 | MVGGEDMAKKKAPSAKEGEKQQGFKEIIPEVTEKLVEQARKEVARERWVTPHKLAQKMGVKVSIARRVLRILEEEGVLVLFTRNRRSPLYLEHHHHHH | not soluble
16 | MAHHHHHHMSPLDACREQYEKDLANQTHCCMLEHVEEENRAANRKVFVRLLRYQQDINTRGTLPFEPDPTDAQKKSKGGNSAAPAYPENLTIRDPRQLKQILPIPDIHKVSDCDLIYRFLIARRMDVDLATNDILSYIGFREKYSLDTILWDREVEAVFNGLDGEELVQQVMGEMKKGATPAPKVKITRPLLQAGWAAWYCGVDKRGHVIFYQRPNPKELAMLEKRWPYIEGQYDCRNPEFHSVTPPYSNLLSRVYLREVEKGRRISRLLNYNQQYIIREGLHVQTTVKPTSTDTFMDNGGGATCLVDVGSIKLSHLTSSKCKKAFKLFRVLSLTGQSFYPENMSRMIIINGGFVFNMLFKLVRPWLDPQTQKKIVLLSATNRATLDELSSDSNLMSQSHETNDSEESDDDGTPVVGTDSERAKYALRDALAEYIHEDFIPSWYGGRLPVVDSPLFYGASPPKSLAENPQFAAACERLRARVVPQLLPDAFIFANAKEREGVGQEEWEAFCSMTERTLFRKQASTQCSSHS | not soluble
17 | GIDPFTFENATSDAINQDMMLYIERIAKIIQKLPKRVHINVRGFTDDTPLVKTRFKSHYELAANRAYRVMKVLIQYGVNPNQLSFSSYGSTNPIAPNDSLENRMKNNRVEIFFSTDANDLSKIHSILDNEFNPHKQQE | soluble
18 | MAHHHHHHMPLYRLSVSAETEGVVCIRPMRPRNWGLKVTCDACREFSPNFVYVDESEECDSGGGGTRNAAFKCASCKTLITAHIDPESYGTYRPEEDNGKGDGNSILIIEVRGATPTELEIDDKWVVEAEGATFEAADLSTDWMEYDEKSGNAVSVSQFTVEFSRLKK | soluble
19 | MTEFQLEKAATLKTIAIRAKKVGEMVDFYKKVMGFVLKSEENNLSIWGTREAGTQLLILEETRKAEDFHNEEKQMAYFSIKVPTEKEFLQIAQRVLEQDYPIDESFQIGTRQSMFITDLEGNQFEIFHDEATANSTSEKQPIVLKDLISEDLEPHQGLAAGSYLAHVQLKTNNQKEIKAYYEEVLGLKRNEKDQFVLEDGKATIGFQKPETSEVDQLPDPHLGLDFFTIKLSDQEHILAMEQQLTAKNQEFFIDQKKAIVTVFDPIGLEWWFVLK | not soluble
20 | MPKGNKKPNEKKEELEKFAKELQGSDSDEDAVVIEQPTVEPKLPQNDSSSSNKIVLSQAEKDLLRTELDKTEEEISTLKQVLSARQKHAAELKRKLGLTPFSELSQDINRSLKTVTDTDAYQKTAEVAAATSDTVKEKWNDMRNSSLFKSFESKLGSALNNAKMAASTSIDHLAGAARGPSQTGTPVAEEAKPIS | soluble
21 | MAEINIYQNPGQSLANIYKGFARQCNPGFVFPEAQTIEAWDIPLRLHPEFIPGGDISKADQQYSTLLAQEIANGVTIGFRMVNEKERVCNVEILPLLTSMAQNLDRIKARFGSGYLDRFKGSPNVYPTDVGFSTDASGGISQESGLLVSYGVNLRTLTPGTWQAMTLPEDIKALVGPGVGLRLDAPNFSDVFNTIKSGLRYTTAVTLLLAYFAAI | soluble
